Assay results as given in EP2045266A1, “Methods for treating and diagnosing a cancer secreting cath-D or Alzheimer's disease” (priority 2007, dated 2009).

Target: M6P receptors
Test: cell-based or functional assay

pro-cath-D (52 kDa precursor of human cathepsin D), P07339 21-412 (enzyme), sequence (P07339 21-412 limits assumed): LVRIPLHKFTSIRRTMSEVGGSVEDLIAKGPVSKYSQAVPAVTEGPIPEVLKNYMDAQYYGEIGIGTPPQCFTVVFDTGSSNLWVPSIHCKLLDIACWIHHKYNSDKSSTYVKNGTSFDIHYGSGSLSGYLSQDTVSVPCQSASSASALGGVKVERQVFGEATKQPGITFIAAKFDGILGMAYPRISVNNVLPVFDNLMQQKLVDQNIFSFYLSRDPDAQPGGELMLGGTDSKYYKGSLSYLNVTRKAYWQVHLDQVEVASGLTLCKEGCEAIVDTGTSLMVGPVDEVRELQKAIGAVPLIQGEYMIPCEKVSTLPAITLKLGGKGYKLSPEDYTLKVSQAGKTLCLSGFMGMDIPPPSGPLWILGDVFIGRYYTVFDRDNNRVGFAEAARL

decrease in internalization of labelled pro-cath-D by HMF fibroblasts over 3 h with excess soluble M6P (10 mM): 82%
Substance: pro-cath-D (52 kDa precursor of human cathepsin D), P07339 21-412 (enzyme)
